Measured values published in IntAct's records for PubMed 15377662.

B1: Ras-related protein Rab-5A (Homo sapiens), P20339 (parent)
chain: MASRGATRPNGPNTGNKICQFKLVLLGESAVGKSSLVLRFVKGQFHEFQESTIGAAFLTQTVCLDDTTVKFEIWDTAGQERYHSLAPMYYRGAQAAIVVYDITNEESFARAKNWVKELQRQASPNIVIALSGNKADLANKRAVDFQEAQSYADDNSLLFMETSAKTSMNVNEIFMAIAKKLPKNEPQNPGANSARGRGVDLTEPTQPTRNQCCSN

Variants of: B1
Settings: with p85a_bovin PIK3R1, P23727
Chain of p85a_bovin PIK3R1, P23727 (P23727 whole entry): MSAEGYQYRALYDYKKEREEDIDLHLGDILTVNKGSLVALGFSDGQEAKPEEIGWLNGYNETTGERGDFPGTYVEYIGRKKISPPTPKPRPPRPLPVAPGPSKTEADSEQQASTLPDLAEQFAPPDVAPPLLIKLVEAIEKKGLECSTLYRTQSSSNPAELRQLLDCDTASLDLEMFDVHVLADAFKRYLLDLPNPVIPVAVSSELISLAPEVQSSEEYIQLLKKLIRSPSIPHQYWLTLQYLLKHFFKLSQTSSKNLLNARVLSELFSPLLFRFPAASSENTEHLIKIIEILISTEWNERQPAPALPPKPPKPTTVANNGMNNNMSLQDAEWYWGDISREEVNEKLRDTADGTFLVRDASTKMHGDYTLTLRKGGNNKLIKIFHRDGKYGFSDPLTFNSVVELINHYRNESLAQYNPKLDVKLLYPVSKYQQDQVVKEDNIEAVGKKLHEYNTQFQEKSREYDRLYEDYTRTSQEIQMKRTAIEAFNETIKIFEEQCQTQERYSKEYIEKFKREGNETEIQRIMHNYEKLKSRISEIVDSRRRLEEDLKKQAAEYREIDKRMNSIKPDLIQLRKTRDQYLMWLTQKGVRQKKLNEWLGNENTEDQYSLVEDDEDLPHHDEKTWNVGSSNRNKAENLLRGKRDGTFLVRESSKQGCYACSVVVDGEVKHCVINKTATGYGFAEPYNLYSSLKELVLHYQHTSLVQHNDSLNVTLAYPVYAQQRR

Variant | effect of a mutation on the interaction
MASRGATRPNGPNTGNKICQFKLVLLGESAVGKNSLVLRFVKGQFHEFQESTIGAAFLTQTVCLDDTTVKFEIWDTAGQERYHSLAPMYYRGAQAAIVVYDITNEESFARAKNWVKELQRQASPNIVIALSGNKADLANKRAVDFQEAQSYADDNSLLFMETSAKTSMNVNEIFMAIAKKLPKNEPQNPGANSARGRGVDLTEPTQPTRNQCCSN [S34N] | disrupting interaction

Variants of: B1
Settings: with p85a_bovin PIK3R1, P23727
Remark: another data set of the same source

Variant | effect of a mutation on the interaction
MASRGATRPNGPNTGNKICQFKLVLLGESAVGKSSLVLRFVKGQFHEFQESTIGAAFLTQTVCLDDTTVKFEIWDTAGLERYHSLAPMYYRGAQAAIVVYDITNEESFARAKNWVKELQRQASPNIVIALSGNKADLANKRAVDFQEAQSYADDNSLLFMETSAKTSMNVNEIFMAIAKKLPKNEPQNPGANSARGRGVDLTEPTQPTRNQCCSN [Q79L] | decreasing interaction
